According to patent publication US20230348603A1 (VERSEAU THERAPEUTICS, published 2023):

T1: Cynomolgus Monkey VSIG4-L-His (cynomolgus monkey)
T1 construct: ECD with His tag; also called cyVSIG4-L; cyno VSIG4-L-His
T1 chain: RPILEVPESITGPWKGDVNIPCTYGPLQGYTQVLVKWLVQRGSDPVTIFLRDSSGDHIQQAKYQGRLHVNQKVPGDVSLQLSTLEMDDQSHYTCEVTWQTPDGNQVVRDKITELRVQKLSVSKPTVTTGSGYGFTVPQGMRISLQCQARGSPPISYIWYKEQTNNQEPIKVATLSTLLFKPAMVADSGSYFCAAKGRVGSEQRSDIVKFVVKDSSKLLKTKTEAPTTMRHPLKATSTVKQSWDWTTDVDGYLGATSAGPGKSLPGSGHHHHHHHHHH

T2: Human VSIG4-L-His (human, UniProt Q9Y279 20-283)
T2 construct: long isoform ECD with His tag; also called hVSIG4-L
T2 sequence: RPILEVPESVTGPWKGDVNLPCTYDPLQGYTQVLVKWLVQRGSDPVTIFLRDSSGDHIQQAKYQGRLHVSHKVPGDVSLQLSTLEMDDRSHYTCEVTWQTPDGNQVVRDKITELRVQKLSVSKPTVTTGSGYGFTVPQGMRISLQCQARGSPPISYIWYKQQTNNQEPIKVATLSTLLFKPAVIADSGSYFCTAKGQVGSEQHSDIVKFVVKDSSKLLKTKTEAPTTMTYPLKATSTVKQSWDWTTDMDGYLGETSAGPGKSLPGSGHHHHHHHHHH

T3: Human VSIG4-L-CHO (human VSIG4 long isoform on CHO-K1 cells) (human, UniProt Q9Y279 20-399)
T3 construct: also called hVSIG4-L (flow cytometry)
T3 sequence: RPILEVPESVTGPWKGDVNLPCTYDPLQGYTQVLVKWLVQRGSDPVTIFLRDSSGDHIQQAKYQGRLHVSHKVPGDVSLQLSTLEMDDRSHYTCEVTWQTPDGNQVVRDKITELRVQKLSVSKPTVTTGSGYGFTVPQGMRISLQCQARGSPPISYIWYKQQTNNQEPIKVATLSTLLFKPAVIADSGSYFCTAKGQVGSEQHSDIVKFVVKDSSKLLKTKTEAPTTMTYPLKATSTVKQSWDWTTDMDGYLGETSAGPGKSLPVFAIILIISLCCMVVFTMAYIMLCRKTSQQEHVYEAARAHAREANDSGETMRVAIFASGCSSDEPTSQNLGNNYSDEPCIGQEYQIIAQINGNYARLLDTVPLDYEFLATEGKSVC

T4: Mouse VSIG4-His (mouse)
T4 construct: ECD with His tag; also called mVSIG4
T4 chain: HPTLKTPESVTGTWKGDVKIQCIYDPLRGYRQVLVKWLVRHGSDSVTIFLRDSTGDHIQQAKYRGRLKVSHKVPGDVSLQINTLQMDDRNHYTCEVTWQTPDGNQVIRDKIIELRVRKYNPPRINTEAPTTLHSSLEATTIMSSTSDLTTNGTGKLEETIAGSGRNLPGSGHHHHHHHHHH

T5: Human VSIG4-S-His (human, UniProt Q9Y279 20-283)
T5 construct: short isoform ECD with His tag; also called hVSIG4-S; VISG4-S-His
T5 sequence: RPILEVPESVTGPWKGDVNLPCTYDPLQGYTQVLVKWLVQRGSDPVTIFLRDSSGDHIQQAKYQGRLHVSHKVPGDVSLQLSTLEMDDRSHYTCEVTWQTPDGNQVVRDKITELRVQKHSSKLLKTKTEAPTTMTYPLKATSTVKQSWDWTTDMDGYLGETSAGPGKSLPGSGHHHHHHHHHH


Assays:
Human VSIG4-S-Fc [1] = biological target: T6, Human VSIG4-S-Fc (human); assay: ELISA, Fab P.E. 1:5 on coated antigen;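 also: mouse Fab P.E. samples in 1% skimmed milk PBS, bound to antigen-coated wells for 1 h at room temperature, read as absorbance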
T6 construct: short isoform ECD fused to human Fc1; also called hVSIG4-S
T6 sequence (chain, as listed by the source limits assumed): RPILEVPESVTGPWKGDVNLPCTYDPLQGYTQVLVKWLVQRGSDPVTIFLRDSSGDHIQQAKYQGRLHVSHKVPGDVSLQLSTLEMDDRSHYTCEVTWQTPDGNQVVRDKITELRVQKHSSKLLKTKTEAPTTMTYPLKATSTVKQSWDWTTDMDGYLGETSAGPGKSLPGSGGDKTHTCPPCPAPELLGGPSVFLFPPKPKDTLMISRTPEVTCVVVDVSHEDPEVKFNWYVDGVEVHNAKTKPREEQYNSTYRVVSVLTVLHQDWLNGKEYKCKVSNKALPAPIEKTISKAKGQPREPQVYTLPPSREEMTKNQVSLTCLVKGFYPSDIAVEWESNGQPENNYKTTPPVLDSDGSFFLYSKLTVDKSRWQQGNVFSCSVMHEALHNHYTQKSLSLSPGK
Procedure: (§1) Coated microplates were blocked with dried skimmed milk at 4% in PBS. P.E. samples of the mouse unique Fab sequences were diluted 1:5 in assay buffer (1% dried skimmed milk in PBS), and 100 μl of diluted sample was added onto the coated wells and incubated for one hour at room temperature. […] Optical density (OD) at 450 nm was determined using a standard absorbance microplate reader.

Human VSIG4-L-Fc [2] = biological target: T7, Human VSIG4-L-Fc (human); assay: ELISA, Fab P.E. 1:5 on coated antigen;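 also: mouse Fab P.E. samples in 1% skimmed milk PBS, bound to antigen-coated wells for 1 h at room temperature, read as absorbance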
T7 construct: also called hVSIG4-L-Fc; hVSIG4-L
Target sequence in this assay (chain, as listed by the source limits assumed): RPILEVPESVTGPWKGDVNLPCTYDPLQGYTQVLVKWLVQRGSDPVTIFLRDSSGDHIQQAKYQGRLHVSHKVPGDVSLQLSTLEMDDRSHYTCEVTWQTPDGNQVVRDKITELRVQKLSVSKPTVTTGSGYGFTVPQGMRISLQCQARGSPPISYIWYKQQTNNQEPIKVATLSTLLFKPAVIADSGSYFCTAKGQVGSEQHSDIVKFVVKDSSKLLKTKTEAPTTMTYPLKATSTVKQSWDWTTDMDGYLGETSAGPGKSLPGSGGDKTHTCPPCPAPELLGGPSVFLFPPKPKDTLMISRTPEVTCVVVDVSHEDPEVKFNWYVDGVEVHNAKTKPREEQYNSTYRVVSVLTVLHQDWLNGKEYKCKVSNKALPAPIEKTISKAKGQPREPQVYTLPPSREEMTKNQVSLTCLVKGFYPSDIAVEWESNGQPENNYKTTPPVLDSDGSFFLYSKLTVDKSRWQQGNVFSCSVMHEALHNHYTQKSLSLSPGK
Procedure: as §1

[3] = biological target: T1, Cynomolgus Monkey VSIG4-L-His; assay: ELISA, Fab P.E. 1:5 on coated antigen;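 also: mouse Fab P.E. samples in 1% skimmed milk PBS, bound to antigen-coated wells for 1 h at room temperature, read as absorbance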
Procedure: as §1

Human VSIG4-L-His [4] = biological target: T2, Human VSIG4-L-His; assay: SPR (Biacore T200), Fab P.E. 1:5 over immobilised antigen
Human VSIG4-L-Fc [5] = biological target: T7, Human VSIG4-L-Fc; assay: blocking ELISA, biotin-iC3b on coated hVSIG4-L-Fc
Procedure: (§2) Coated microplates were blocked with casein (Sigma-Aldrich, St. Louis, MO) at 1% in PBS. […] One hundred ill of the mixed sample was added onto the coated wells and incubated for one hour at room temperature. […] OD at 450 nm was determined using a standard absorbance microplate reader.

Human VSIG4-L-Fc [6] = biological target: T7, Human VSIG4-L-Fc; assay: blocking ELISA, biotin-C3b on coated hVSIG4-L-Fc
Procedure: as §2

Human VSIG4-L-Fc [7] = biological target: T7, Human VSIG4-L-Fc; assay: BLI binning on hVSIG4-L-Fc, competitor 16E10 first;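 also: normalized to binding of second antibody without first competitor antibody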
[8] = biological target: T3, Human VSIG4-L-CHO (human VSIG4 long …); assay: flow cytometry, CHO-K1 cells expressing hVSIG4-L
Procedure: Three-fold serial dilution of each antibody starting at 200 nM were prepared in assay buffer (0.5% of heat inactivated Fetal bovine serum with 1:1000 Ethylenediaminetetraacetic acid in PBS). […] As a control for specificity, an irrelevant antibody was used. Binding detection was assessed using a goat anti-Human IgG (Fc specific), FITC conjugated polyclonal detection antibody (Sigma Aldrich, St. Louis, MO) and by acquisition of 10,000 cells per sample. Fluorescence was measured on an Attune™ NxT (Thermo Fisher Scientific, Waltham, MA).

Human VSIG4-L-Fc [9] = biological target: T7, Human VSIG4-L-Fc; assay: BLI binning on hVSIG4-L-Fc, competitor 15C04 first;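 also: normalized to binding of second antibody without first competitor antibody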
Human VSIG4-L-Fc [10] = biological target: T7, Human VSIG4-L-Fc; assay: BLI binning on hVSIG4-L-Fc, competitor 12A12 first;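 also: normalized to binding of second antibody without first competitor antibody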
Procedure: Epitopic diversity of functional antibodies was further assessed by antibody cross-blocking experiments, performed on a ForteBio Octet® Red384 system. […] All assay steps occurred at 30° C. with an acquisition rate of 5.0 Hz.
Binning results were calculated using ForteBio Data Analysis HT software. Antibody “a” and antibody “b” steps were defined, and the maximum binding calculation was averaged at the last 10% of the step duration. Once the matrix was generated, the antibody “b” binding signal in the absence of any antibody “a” was used to normalize the maximum binding of the competitor antibodies. Hierarchical clustering was set with a similarity metric of Pearson and Lingang Criteria by Mean, and the normalized maximum binding nm shift is reported in Table 9 below.

Human VSIG4-L-Fc [11] = biological target: T7, Human VSIG4-L-Fc; assay: BLI binning on hVSIG4-L-Fc, competitor 14D12 first;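 also: normalized to binding of second antibody without first competitor antibody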
Human VSIG4-L-His [12] = biological target: T2, Human VSIG4-L-His; assay: SPR (FJB)
Human VSIG4-S-Fc [13] = biological target: T6, Human VSIG4-S-Fc; assay: ELISA, IgG 50 nM on coated antigen;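 also: Mouse-human chimeric IgG4 antibodies incubated 1 h on plate-coated VSIG4 proteins, bound IgG detected with HRP-labelled anti-human IgG, irrelevant antibody and protein as specificity controls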
Procedure: (§3) The binding characteristics of selected antibodies identified in the phage display selections and reformatted as mouse-human chimeric IgG4 antibodies was assessed by ELISA for their ability to bind plate-bound human VSIG4-L, human VSIG4-S, cynomolgus monkey VSIG4, and mouse VSIG4 (Table 7). Antibodies were also assessed by ELISA for specificity to human VSIG4 compared to related VSIG4 B7 family members, including human B7-H1, B7-H2, B7-H3, B7-H4, B7-DC, B7-1, and B7-2 (Table 8).
(§4) Coated microplates were blocked with dried skimmed milk at 4% in PBS. Coated proteins were then incubated with each purified antibody at a concentration of 50 nM for 1 h to allow the binding to the proteins. Binding detection was measured using a goat anti-huIgG monoclonal detection antibody, HRP conjugated (Jackson Immune Research, West Gove, PA). As a control for specificity, an irrelevant antibody and protein were used. OD at 450 nm was determined using a standard absorbance microplate reader.

Human VSIG4-L-Fc [14] = biological target: T7, Human VSIG4-L-Fc; assay: ELISA, IgG 50 nM on coated antigen;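 also: Mouse-human chimeric IgG4 antibodies incubated 1 h on plate-coated VSIG4 proteins, bound IgG detected with HRP-labelled anti-human IgG, irrelevant antibody and protein as specificity controls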
Procedure: as §3, §4

Mouse VSIG4-His = biological target: T4, Mouse VSIG4-His; assay: ELISA, IgG 50 nM on coated antigen;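 also: Mouse-human chimeric IgG4 antibodies incubated 1 h on plate-coated VSIG4 proteins, bound IgG detected with HRP-labelled anti-human IgG, irrelevant antibody and protein as specificity controls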
Procedure: as §3, §4

Human VSIG4-L-Fc [15] = biological target: T7, Human VSIG4-L-Fc; assay: BLI binning on hVSIG4-L-Fc, competitor 13H11 first;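 also: normalized to binding of second antibody without first competitor antibody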
Human VSIG4-L-Fc [16] = biological target: T7, Human VSIG4-L-Fc; assay: ligand competition ELISA (FJB), blocked ligand iC3b, 200 nM mAb
[17] = biological target: T3, Human VSIG4-L-CHO (human VSIG4 long …); assay: flow cytometry (FJB), 200 nM mAb, huVSIG4-L CHO-K1 over parental CHO-K1
Human VSIG4-L-Fc [18] = biological target: T7, Human VSIG4-L-Fc; assay: BLI binning on hVSIG4-L-Fc, competitor 14C05 first;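 also: normalized to binding of second antibody without first competitor antibody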
Human VSIG4-S-His = biological target: T5, Human VSIG4-S-His; assay: BLI (Octet), IgG on AHC sensor, antigen 100 nM
Human VSIG4-L-His [19] = biological target: T2, Human VSIG4-L-His; assay: BLI (Octet), IgG on AHC sensor, antigen 100 nM
[20] = biological target: T3, Human VSIG4-L-CHO (human VSIG4 long …); assay: flow cytometry (FJB), 200 nM mAb, huVSIG4-L CHO-K1 cells
Human VSIG4-L-Fc [21] = biological target: T7, Human VSIG4-L-Fc; assay: BLI binning on hVSIG4-L-Fc, competitor 15C03 first;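 also: normalized to binding of second antibody without first competitor antibody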
[22] = biological target: T1, Cynomolgus Monkey VSIG4-L-His; assay: ELISA, IgG 50 nM on coated antigen; ELISA, bivalent IgG on plate-coated cyVSIG4-L (avid format)
Procedure: as §4

Human VSIG4-L-Fc [23] = biological target: T7, Human VSIG4-L-Fc; assay: ligand competition ELISA (FJB), blocked ligand C3b, 200 nM mAb
Human VSIG4-L-Fc [24] = biological target: T7, Human VSIG4-L-Fc; assay: BLI binning on hVSIG4-L-Fc, competitor 15A06 first;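 also: normalized to binding of second antibody without first competitor antibody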
Human VSIG4-L-Fc [25] = biological target: T7, Human VSIG4-L-Fc; assay: BLI binning on hVSIG4-L-Fc, competitor 12A08 first;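 also: normalized to binding of second antibody without first competitor antibody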
Human VSIG4-L-Fc [26] = biological target: T7, Human VSIG4-L-Fc; assay: BLI binning on hVSIG4-L-Fc, competitor 16E03 first;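 also: normalized to binding of second antibody without first competitor antibody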
Human VSIG4-L-Fc [27] = biological target: T7, Human VSIG4-L-Fc; assay: ligand competition ELISA (FJB), blocked ligand iC3b
Human VSIG4-L-Fc [28] = biological target: T7, Human VSIG4-L-Fc; assay: ligand competition ELISA (FJB), blocked ligand C3b
Human VSIG4-L-Fc [29] = biological target: T7, Human VSIG4-L-Fc; assay: ligand blocking of iC3b, IgG
Human VSIG4-L-Fc [30] = biological target: T7, Human VSIG4-L-Fc; assay: ligand blocking of C3b, IgG

normalized maximum binding nm shift (Human VSIG4-L-Fc [7]) [normalized]	EC50 [8] [nM]	normalized maximum binding nm shift (Human VSIG4-L-Fc [9]) [normalized]	normalized maximum binding nm shift (Human VSIG4-L-Fc [10]) [normalized]	normalized maximum binding nm shift (Human VSIG4-L-Fc [11]) [normalized]	Kd (Human VSIG4-L-His [12]) [nM]	ELISA OD450 (Human VSIG4-S-Fc [13]) [OD450]	ELISA OD450 (Human VSIG4-L-Fc [14]) [OD450]	ELISA OD450 (Mouse VSIG4-His) [OD450]	normalized maximum binding nm shift (Human VSIG4-L-Fc [15]) [normalized]	Binding (200 nM) Fold-Over-Parental [17] [fold]	normalized maximum binding nm shift (Human VSIG4-L-Fc [18]) [normalized]	Kd (Human VSIG4-S-His) [nM]	Kd (Human VSIG4-L-His [19]) [nM]	Binding (200 nM) MFI [20] [MFI]	normalized maximum binding nm shift (Human VSIG4-L-Fc [21]) [normalized]	ELISA OD450 [22] [OD450]	normalized maximum binding nm shift (Human VSIG4-L-Fc [24]) [normalized]	normalized maximum binding nm shift (Human VSIG4-L-Fc [25]) [normalized]	normalized maximum binding nm shift (Human VSIG4-L-Fc [26]) [normalized]	Binder	further results
–	–	–	–	–	–	–	–	–	–	–	–	–	–	–	–	–	–	–	–	14C05 mouse Fab (periplasmic extract) (Fab, V domains shown, mouse Fab with C-terminal His6-c-myc tag) VH: EVMLVESGPELKKPGETVKISCKASGYTFTNYGMNWVKQAPGKGLKWMGSINTYTGEATYADDFKGRFAFSLETSANTAYLQIDNLKNEDTATYFCARGDYYGRGTWFAYWGQGTLVTVSA VL: ETTVTQSHKFMSTSVGDRVSITCKASQDVSTAVAWYQQKPGQSPKLLIYSASYRYPGVPDRFTGSGSGTDFTFTISSVQAEDLAVYYCQQDYSSPWTFGGGTKLEIK	ELISA OD450 (Human VSIG4-S-Fc [1]): 4.32 OD450; ELISA OD450 (Human VSIG4-L-Fc [2]): 4.33 OD450; ELISA OD450 [3]: 4.37 OD450; koff (Human VSIG4-L-His [4]): 0.00037 s⁻¹; Percent Blocking iC3b (Human VSIG4-L-Fc [5]): 88.7%; Percent Blocking C3b (Human VSIG4-L-Fc [6]): 88.8%
0.37	1	0.86	0.9	0.79	29.7	4.13	4.5	0.054	0.76	23	0.78	49.3	49.3	30400	0.1	4.36	0.83	0.13	0.04	16E03 mouse/human chimeric IgG4 (S228P) kappa (antibody, V domains shown) VH: QVQLQQSGAELARPGASVKMSCKASGYTFTSYTMHWIKQRPGQGLEWIGYINPSSGHTYYNQKFKDKATLTPDKSSSTAYMQLTSLTSEDSAVYYCARRIPTAYAMDYWGQGTSVTVSS VL: EIQMTQSHKFMSTSVGDRVSITCKASQDVGTAVAWYQQKPGQSPKLLIYWASTRHTGVPDRFTGSGSGTDFTLTISNVQSEDLADYFCQQYSSYPLTFGAGTKLELKR	% Block iC3b (200 nM mAb) (Human VSIG4-L-Fc [16]): -3%; % Block C3b (200 nM mAb) (Human VSIG4-L-Fc [23]): -192%
0.93	2.3	0.89	0.76	0.41	17.9	3.64	4.4	0.057	0.74	83	0.44	18.6	32.1	48900	0.15	4.5	0.82	0.8	0.13	15C03 mouse/human chimeric IgG4 (S228P) kappa (antibody, V domains shown) VH: EVKLLESGPGLVKPSQSLSLTCTVTGYSITSDYAWNWIRQFPGNKLEWMGYISYSGSTRYNPSLKSRISITRDTSNNQFFLQLNSVTTEDTATYYCARSGYAAMDYWGQGTSVTVSS VL: ENVLTQSPAIMSASPGEKVTMTCRASSSVSSSYLHWYQQKSGASPKLWIYSTSNLASGVPARFSGSGSGTSYSLTISSVEAEDAATYYCQQYSGYPLTFGSGTKLEIKR	IC50 (Human VSIG4-L-Fc [27]): 12.8 nM; IC50 (Human VSIG4-L-Fc [28]): 2.4 nM; Percent Blocking iC3b (Human VSIG4-L-Fc [29]): 90%; Percent Blocking C3b (Human VSIG4-L-Fc [30]): 90%
